This is an account of results in the supplement of paper PMC10724198.

± gives the standard deviation of the averaged measurements.
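Note: PSI is a weighted mean of sequencing reads over stability bins, variants kept only with over 10 reads, mCherry proximal and sfGFP distal, peptide attached via GGGS linker.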

The series deals with Saccharomyces cerevisiae. Put plainly: protein stability index of tFT-peptide fusion (C-terminal peptide) (PSI (0-1 scale)); higher = more stable (slower turnover). As to conditions: genetic background: wild type; temperature: 30 C.
As to SQFLRPSAVAPS, the protein stability index is 0.642 ± 0.037.
Regarding SQGLWRGVALTG, the protein stability index was 0.7325 ± 0.0017.
In turn, SQHTNTKTKLKK showed a protein stability index of 0.706 ± 0.043.
Under SQKWKGSSVIIG stands 0.723 ± 0.032; under SQLGRPSLHPVR, 0.6601 ± 0.0024.
Under SQRPPPLCDFTD stands 0.723 ± 0.013; under SQTRIKPREETA, 0.653 ± 0.031.
Under SRAGAVLSGIES stands 0.669 ± 0.013; under SRDRRASPPLPP, 0.722 ± 0.049; under SRDSRSSRRAGA, 0.702 ± 0.065.
In the case of SRESTPDSHTMS, the protein stability index came to 0.726 ± 0.065.
SRFHVLLPPPPS displayed a protein stability index of 0.674 ± 0.035.
SRFSRAVSVARV gave a protein stability index of 0.666 ± 0.023.
SRGGGEGTVGKK returned a protein stability index of 0.697 ± 0.022.
Under SRGGGWSEGGEG stands 0.716 ± 0.028; under SRGLPAPASRYC, 0.713 ± 0.015.
Under SRHPPPPVSPHP stands 0.727 ± 0.064.
Under SRHPSFPLPMPL stands 0.746 ± 0.086; under SRHRAVRAGENW, 0.708 ± 0.045; under SRISSCSLVRPP, 0.679 ± 0.032.
In turn, SRKNGLQRKQKT yielded a protein stability index of 0.7277 ± 0.0055.
Under SRLLLPIGISRV stands 0.543 ± 0.16; under SRLNRRKGNGRK, 0.656 ± 0.083.
Under SRLSPSPLPPFL stands 0.667 ± 0.023; under SRNAFTLAARVY, 0.589 ± 0.016.
Under SRPALLLGSEAT stands 0.642 ± 0.031.
SRPATGSVTFPP registered a protein stability index of 0.694 ± 0.0098.
SRPPHPSPPRTF displayed a protein stability index of 0.675 ± 0.03.
Under SRPPSSQSNDEL stands 0.66 ± 0.078.
As to SRQPPPRVFCVV, the protein stability index worked out at 0.571 ± 0.035.
Under SRRKMRILQIVD stands 0.623 ± 0.092.
In turn, SRRNRIYSHTSS had a protein stability index of 0.666 ± 0.025.
Under SRSGLSPTLPVF stands 0.699 ± 0.016; under SRSGPGEIVTTG, 0.688 ± 0.041; under SRSPLCRCAPSF, 0.6534 ± 0.0043.
As to SRSPPVLTRHKL, the protein stability index came out at 0.824 ± 0.058.
In turn, SRVVAGLWRGAV returned a protein stability index of 0.671 ± 0.18.
Under SRWLLSLFTSSF stands 0.762 ± 0.052; under SRYRPTGAHYGH, 0.714 ± 0.064; under SSAGEVAFVAGT, 0.689 ± 0.089.
SSAPPPPPRPLP gave a protein stability index of 0.588 ± 0.052.
In turn, SSFPPAPHAPHD yielded a protein stability index of 0.739 ± 0.03.
Under SSFRASVRSRKT stands 0.692 ± 0.022.
Regarding SSFSAPPMPRSF, the protein stability index was 0.653 ± 0.028.
Under SSGNSVDCFGHQ stands 0.6959 ± 0.0057; under SSHLILTVAPSA, 0.6515 ± 0.0045.
SSHPMNQVIKDR came in with a protein stability index of 0.659 ± 0.13.
SSKGGWSGGGSV returned a protein stability index of 0.71 ± 0.025.
Under SSLAPLLYLDTP stands 0.661 ± 0.084.
Under SSLRPSRPPPAS stands 0.6988 ± 0.0057; under SSLSPLLYRPLF, 0.742 ± 0.047.
For the sequence SSLSPTPPPSFP, the protein stability index was 0.84 ± 0.2.
Under SSPAPPPLLLPS stands 0.7047 ± 0.00088.
Under SSPIFPDPSHVS stands 0.6058 ± 0.0054; under SSPLSSPLSTAP, 0.622 ± 0.018.
With SSPLVHWFSYLS, the protein stability index is 0.682 ± 0.023.
Under SSPPPHPPPVPR stands 0.688 ± 0.1; under SSPPRPLPPHHT, 0.705 ± 0.059; under SSPSFPSPLPPY, 0.701 ± 0.074.
Under SSPSYVPVSYSQ stands 0.708 ± 0.066; under SSRAPSLPPPPP, 0.674 ± 0.025; under SSRCLPPFPLCP, 0.736 ± 0.11.
SSRLALVLLPPG showed a protein stability index of 0.649 ± 0.042.
The sequence SSRRYSGLSFTS displayed a protein stability index of 0.702 ± 0.015.
Under SSRVLFRVSVLR stands 0.646 ± 0.09; under SSSFFLFPVGFF, 0.784 ± 0.14; under SSSHRPTAPSSR, 0.669 ± 0.05.
Under SSSPLPPPSPPP stands 0.673 ± 0.032; under SSSPTPLPRSLP, 0.671 ± 0.024.
Turning to SSSTPPVHVPIS, the protein stability index turned out to be 0.647 ± 0.083.
For SSSVSYFLHYCI, the protein stability index came out at 0.606 ± 0.038.
Sequence SSSWILCRFGRS had a protein stability index of 0.664 ± 0.041.
Under SSTCSPPRLSQS stands 0.679 ± 0.046; under SSVEREEEGGGG, 0.676 ± 0.11; under SSVFRSYTSVLS, 0.686 ± 0.076.
Under SSVGLRTRRTAR stands 0.638 ± 0.081; under SSVILPLRRWPP, 0.648 ± 0.094; under SSVVPITLPAFL, 0.707 ± 0.019.
Under STALVFSDSALL stands 0.694 ± 0.061; under STDRPLRLHPGG, 0.622 ± 0.041.
